We go through one molecule from patent US20130315910A1 (Xencor, published 2013).

The target in one experiment is T1, mFcγRIIb (Mus musculus, UniProt P08101).
T1 construct: extracellular region, C-terminal His- and GST-tag; also called mouse FcγRII
T1 sequence (receptor extracellular region, looked up): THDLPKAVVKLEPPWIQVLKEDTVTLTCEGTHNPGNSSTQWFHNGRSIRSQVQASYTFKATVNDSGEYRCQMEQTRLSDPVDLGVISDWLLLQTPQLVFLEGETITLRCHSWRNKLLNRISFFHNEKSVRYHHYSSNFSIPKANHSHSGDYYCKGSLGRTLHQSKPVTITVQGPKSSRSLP
Kind of experiment: SPR. (Surface plasmon resonance follows binding to a sensor surface in real time, without labels.)

For another experiment, the target named is T2, mFcγRIV.
T2 construct: also called mouse FcγRIV; not shown: C-terminal His and GST tags (named only on our card)
T2 chain: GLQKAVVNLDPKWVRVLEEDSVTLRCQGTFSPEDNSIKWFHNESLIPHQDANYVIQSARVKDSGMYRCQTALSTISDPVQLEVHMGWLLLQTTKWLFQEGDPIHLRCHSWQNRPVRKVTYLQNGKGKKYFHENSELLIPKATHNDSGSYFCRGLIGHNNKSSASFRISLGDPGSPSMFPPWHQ
Kind of experiment: SPR.

The next experiment addresses T3, cynoFcγRIIb (Macaca fascicularis, UniProt A0A140HDP4).
T3 construct: extracellular region, C-terminal His- and GST-tag; also called cynomolgus monkey FcγRIIb
T3 sequence (receptor extracellular region): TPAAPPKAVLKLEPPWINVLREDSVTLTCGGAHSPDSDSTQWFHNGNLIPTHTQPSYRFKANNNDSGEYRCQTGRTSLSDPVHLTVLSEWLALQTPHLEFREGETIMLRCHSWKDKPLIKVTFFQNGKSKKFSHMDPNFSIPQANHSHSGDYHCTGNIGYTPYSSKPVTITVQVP
The experiment can be described thus: SPR.

The target of experiment [1] is T4, human FcγRIIb on cells (transfected HEK293T cells; primary human B cells) (human, UniProt P31994 43-310).
T4 construct: whole, on cells; also called CD32b
T4 sequence (looked up): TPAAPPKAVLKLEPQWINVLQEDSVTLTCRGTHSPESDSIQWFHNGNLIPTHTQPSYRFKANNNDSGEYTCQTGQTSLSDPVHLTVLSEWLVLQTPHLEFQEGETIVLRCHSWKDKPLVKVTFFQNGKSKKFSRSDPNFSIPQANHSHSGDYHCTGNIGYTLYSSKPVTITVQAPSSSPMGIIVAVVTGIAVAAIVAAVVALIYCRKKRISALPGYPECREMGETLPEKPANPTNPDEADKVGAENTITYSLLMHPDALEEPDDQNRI
The experiment can be described thus: flow cytometry on FcγRIIb-transfected 293T cells [bottom right panel]. On the procedure:
(§1) In order to validate the Biacore data and evaluate receptor binding of the variants on the cell surface, binding of select antibodies to cells expressing FcγRIIb was measured. […] HEK293T cells in DMEM with 10% FBS were transfected with human FcγRIIb cDNA in pCMV6 expression vector (Origene Technologies, Rockville, Md.), cultured for 3 days, harvested, washed twice in PBS, resuspended in PBS with 0.1% BSA (PBS/BSA), and aliquoted at 2×10^5 cells per well into 96-well microtiter plates. Fc variant antibodies were serially diluted in PBS/BSA then added to the cells and incubated with mixing for 1 h at room temperature. After extensive washing with PBS/BSA, phycoerythrin (PE)-labeled anti-human-Fab-specific goat F(ab′)2 fragment was added for detection. Cells were incubated for 30 min at room temperature, washed, and resuspended in PBS/BSA. Binding was evaluated using a FACSCanto II flow cytometer (BD Biosciences, San Jose, Calif.), and the mean fluorescence intensity (MFI) was plotted as a function of antibody concentration using Graph Pad Prism software (GraphPad Software, San Diego, Calif.) from which half-maximal binding (EC50) values were determined by sigmoidal dose response modeling.
Background: Flow cytometry measures light scatter and fluorescence of single cells or particles in a stream.

Experiment [2] has as its target T4, human FcγRIIb on cells (transfected …). The experiment can be described thus: flow cytometry on FcγRIIb-transfected 293T cells [top left panel]. As to the method:
as §1
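Throughout, for Fold vs WT IgG1 (off-rate): fold improvement over WT IgG1 so higher means slower dissociation than WT.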

B1: anti-CD19 antibody HuAM4G7 IgG1 S267E (antibody)
heavy: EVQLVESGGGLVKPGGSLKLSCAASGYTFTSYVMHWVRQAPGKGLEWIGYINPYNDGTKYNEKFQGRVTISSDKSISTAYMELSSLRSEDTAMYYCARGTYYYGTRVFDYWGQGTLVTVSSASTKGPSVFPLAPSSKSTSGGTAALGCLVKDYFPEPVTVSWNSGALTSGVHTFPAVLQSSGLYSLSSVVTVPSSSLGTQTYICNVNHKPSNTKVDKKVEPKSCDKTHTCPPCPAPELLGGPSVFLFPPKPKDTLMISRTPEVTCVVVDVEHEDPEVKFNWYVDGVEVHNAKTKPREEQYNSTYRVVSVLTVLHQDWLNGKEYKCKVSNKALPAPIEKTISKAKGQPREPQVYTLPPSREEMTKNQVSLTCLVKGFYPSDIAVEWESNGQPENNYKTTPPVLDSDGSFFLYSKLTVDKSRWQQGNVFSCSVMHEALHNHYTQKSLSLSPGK
light: DIVMTQSPATLSLSPGERATLSCRSSKSLQNVNGNTYLYWFQQKPGQSPQLLIYRMSNLNSGVPDRFSGSGSGTEFTLTISSLEPEDFAVYYCMQHLEYPITFGAGTKLEIKRTVAAPSVFIFPPSDEQLKSGTASVVCLLNNFYPREAKVQWKVDNALQSGNSQESVTEQDSKDSTYSLSSTLTLSKADYEKHKVYACEVTHQGLSSPVTKSFNRGEC
notes: Positions in EU numbering; copies: 2 + 2
The EC50 (read off the curve) is the concentration giving half of the maximal effect. Turning to B1, the “Fold vs WT IgG1 (off-rate)” value with mFcγRIIb turned out to be 1.44 fold; in the experiment with mFcγRIV it was 0.77 fold; in the experiment with cynoFcγRIIb, 1.09 fold. Also, the entries for the “EC50 (read off the curve)” value in experiment [1] and in experiment [2] were ~0.02 µg/mL and ~0.01 µg/mL, respectively.
